Numbered stars: 1 amine (or outer) side, 2 acyl side, 3 side chain; on linkers, the order of the positions; unused ones are H or OH. Square brackets hold non-standard residues; d marks the D form. Primed or numbered codes have the meaning given here. Ends that are not written are not given here. dTrp(2-Me) = Cc1[nH]c2ccccc2c1C[C@@H](N)C(=O)O; azaPhe = O=C(N(Cc1ccccc1)N[*:1])[*:2]; azaLeu = CC(C)CN(N[*:1])C(=O)[*:2]; azaTyr′ = not defined here; HAIC = not defined here; azaGly = NNC(=O)O; Mpa = O=C(O)CCS
B1: CP-3(iv) (peptide)
peptide: A[dW]A[azaPhe][dF]K-NH2
modifications: N-terminus assumed
SMILES: C[C@H](N)C(=O)N[C@H](Cc1c[nH]c2ccccc12)C(=O)N[C@@H](C)C(=O)NN(Cc1ccccc1)C(=O)N[C@H](Cc1ccccc1)C(=O)N[C@@H](CCCCN)C(N)=O
B2: EP80317 (peptide)
peptide: [HAIC][dTrp(2-Me)][dK]W[dF]K-NH2
modifications: reading uncertain
B3: CP-2A(v) (peptide)
peptide: H[dW][azaGly]W[dF]K-NH2
B4: CP-2B(i) (peptide)
peptide: H[dW][azaLeu]W[dF]A-NH2
modifications: N-terminus assumed
SMILES: CC(C)CN(NC(=O)[C@@H](Cc1c[nH]c2ccccc12)NC(=O)[C@@H](N)Cc1c[nH]cn1)C(=O)N[C@@H](Cc1c[nH]c2ccccc12)C(=O)N[C@H](Cc1ccccc1)C(=O)N[C@@H](C)C(N)=O
B5: DBG-178(27) (peptide)
peptide: H[dW]A[azaTyr′][dF]K-NH2
B6: 3-MPA-DSDSD-OH (peptide)
peptide: [Mpa]DSDSD-OH
SMILES: O=C(O)C[C@H](NC(=O)[C@H](CO)NC(=O)[C@H](CC(=O)O)NC(=O)[C@H](CO)NC(=O)[C@H](CC(=O)O)NC(=O)CCS)C(=O)O
B7: 3-MPA-DHDHD-OH (peptide)
peptide: [Mpa]DHDHD-OH
SMILES: O=C(O)C[C@H](NC(=O)[C@H](Cc1c[nH]cn1)NC(=O)[C@H](CC(=O)O)NC(=O)[C@H](Cc1c[nH]cn1)NC(=O)[C@H](CC(=O)O)NC(=O)CCS)C(=O)O
B8: 3-MPA-LLLHH (peptide)
peptide: [Mpa]LLLHH
B9: 3-MPA-LLHHDD-OH (peptide)
peptide: [Mpa]LLHHDD-OH
SMILES: CC(C)C[C@H](NC(=O)CCS)C(=O)N[C@@H](CC(C)C)C(=O)N[C@@H](Cc1c[nH]cn1)C(=O)N[C@@H](Cc1c[nH]cn1)C(=O)N[C@@H](CC(=O)O)C(=O)N[C@@H](CC(=O)O)C(=O)O
B10: 3-MPA-GGGGD-OH (peptide)
peptide: [Mpa]GGGGD-OH
SMILES: O=C(O)C[C@H](NC(=O)CNC(=O)CNC(=O)CNC(=O)CNC(=O)CCS)C(=O)O
B11: 3-MPA-DDDSS (peptide)
peptide: [Mpa]DDDSS
B12: 3-MPA-LLLSS (peptide)
peptide: [Mpa]LLLSS
B13: 3-MPA-SHDSHD-OH (peptide)
peptide: [Mpa]SHDSHD-OH
SMILES: O=C(O)C[C@H](NC(=O)[C@H](Cc1c[nH]cn1)NC(=O)[C@H](CO)NC(=O)[C@H](CC(=O)O)NC(=O)[C@H](Cc1c[nH]cn1)NC(=O)[C@H](CO)NC(=O)CCS)C(=O)O
B14: 3-MPA-LLLDD (peptide)
peptide: [Mpa]LLLDD
B15: 3-MPA-DDDHH (peptide)
peptide: [Mpa]DDDHH
B16: 3-MPA-GGHHDD-OH (peptide)
peptide: [Mpa]GGHHDD-OH
SMILES: O=C(O)C[C@H](NC(=O)[C@H](CC(=O)O)NC(=O)[C@H](Cc1c[nH]cn1)NC(=O)[C@H](Cc1c[nH]cn1)NC(=O)CNC(=O)CNC(=O)CCS)C(=O)O
B17: 3-MPA-HHHDD (peptide)
peptide: [Mpa]HHHDD
B18: 3-MPA-LHDLHD-OH (peptide)
peptide: [Mpa]LHDLHD-OH
SMILES: CC(C)C[C@H](NC(=O)CCS)C(=O)N[C@@H](Cc1c[nH]cn1)C(=O)N[C@@H](CC(=O)O)C(=O)N[C@@H](CC(C)C)C(=O)N[C@@H](Cc1c[nH]cn1)C(=O)N[C@@H](CC(=O)O)C(=O)O
B19: 3-MPA-SSSHH (peptide)
peptide: [Mpa]SSSHH
B20: 3-MPA-SSSDD (peptide)
peptide: [Mpa]SSSDD
B21: 3-MPA-HHHSS (peptide)
peptide: [Mpa]HHHSS

target: recombinant soluble His-tagged CD36; test: SPR, His-tagged CD36 held on the Cu-NTA peptide monolayer, linear Langmuir plot
Sequence (P16671 30-439): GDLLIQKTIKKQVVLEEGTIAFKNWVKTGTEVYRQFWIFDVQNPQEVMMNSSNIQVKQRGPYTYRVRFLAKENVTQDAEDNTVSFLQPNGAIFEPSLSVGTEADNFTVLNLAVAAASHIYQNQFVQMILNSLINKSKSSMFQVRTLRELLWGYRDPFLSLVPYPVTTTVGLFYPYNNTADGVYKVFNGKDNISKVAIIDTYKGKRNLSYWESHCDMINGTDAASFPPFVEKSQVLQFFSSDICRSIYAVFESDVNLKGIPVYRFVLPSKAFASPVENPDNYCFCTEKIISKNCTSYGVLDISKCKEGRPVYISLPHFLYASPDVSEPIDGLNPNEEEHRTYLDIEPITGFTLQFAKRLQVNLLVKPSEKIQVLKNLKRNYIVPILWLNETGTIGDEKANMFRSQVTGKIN

Kd [nM] | Binder
380 | B1
82 | B2
44 | B3
1400 | B4
22 | B5

target: CD36 receptor (in the src-kinase cellular assay); test: cell-based or functional assay

SRC-kinase cellular assay EC50 [nM] | Binder
44 | B1
26 | B3
> 10000 | B4
63 | B5

target: nonspecific proteins present in blood serum; test: SPR, mass of serum proteins adsorbed on the peptide self-assembled monolayer on gold

nonspecific adsorption (ΔΓnonspecific) [ng/cm^2] | Binder
34 | B6
274 | B7
45 | B8
174 | B9
218 | B10
69 | B11
39 | B12
17 | B13
35 | B14
56 | B15
149 | B16
32 | B17
12 | B18
79 | B19
23 | B20
48 | B21

— patent US20120329986A1
